In the nanobody polyreactivity screen of Harvey et al. (2022):

Assay: yeast display, Sf9 membrane polyspecificity reagent, FACS + sequencing; frameworks hold sequencing errors
Method in brief: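 A synthetic nanobody library was expressed on Saccharomyces cerevisiae BJ5465 by galactose induction for 36–48 hours. The library was stained for 1 hour at 4 °C with 10% biotinylated, detergent-solubilized Sf9 membrane reagent and enriched with streptavidin microbeads before FACS. Low and high (top ~1%) gates were set on anti-HA fluorescence for expression and streptavidin fluorescence for reagent binding, and each polyreactivity label reflects the gate of origin.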

| Sequence | polyreactivity (PSR sort gate) |
| --- | --- |
| QVQLVESGGGLVQAGGSHRLSCDASGYIFRRYAMGWYRQAPGKERELVAAISWRGGSTYYADSVKGRFTISRDNAKNTVYLQMNSLKPEDSAVYYCAKVVPGAGHLDEYWGQGTQVTVSS | high polyreactivity |
| QVQLVESGAGLVQAGGSLRLSCAASGSIFAWYGMGWYRQAPGQERELVAAISTAGSTNYADSVKGRFTISRDNAKNTVYLQMNSLKPEDTAVYYCAKISSWYYPERFDYWGQGTQVTVSS | low polyreactivity |
| QVQLVESGGGLVQAGGSLRLSCAASGFTFWRYALGWYRQAPGKETEFVASITWSGGSTYYADSVKGRFTISRDNAKNTVYLQMNRLQPEDTAVYYCAAVARTSGIKYYYWGQGTQVTVSS | high polyreactivity |
| QVQLVESGGGLVQAGGSLRLSCAASGSTFARYAMGWYRQAPGKERELVAAISRRGGSTYYADSVKGRFTISRDNAKNTVYLQINSLKPEDTAVYYCAARYGIITSFEYDYWGQGTQVTVSS | high polyreactivity |
| QVQLVESGGGLVQAGGSLRLSCAAYGSIFDHYAMVWNRQAPGKERELVAAITYSDGSTYYADSVKGRFTISRDNAKNTVYLQMKSLKPEDTAVYYCAAYPRGSQRYNYWGQGTQVTVSS | high polyreactivity |
| QVQLVESGGALVQAGGSLRLSCAASGTTFHSYPMGWYRQAPGKERELVAAISNGGRTNYADSVNGRFTISRDNAKNTVYLQMNSLKPVDTAVYYCAVRLYRDSSYYYWGQGTQVTVSS | low polyreactivity |
| QVQLVESGGGLVQAGGSLRLSCAASGRIFGTYAMGWYRQAPGKERELVATISYSSGRTYYADSVKGRFTISRDNAKNTVYFQMNSLKPEDTAVYYCARRRRSGSRQYYYWGQGTQVTVSS | high polyreactivity |
| QVQLVESGGGLVQAGGSLRLSCAASGFTFYRYAMGWYRQAPGKESELVAAISGSGGSTYYADSVKGRFTISRDNAKNTVYLQMNSLKPEDTAVYYCNTVWFYGAKYDYWGQGTQVTVSS | high polyreactivity |
| QVQLVESGGGLVQAGGSLRLSCAASGIIYYGYAMGWYRQAPGKERELVAAISRSGGSTYYADSVKGRFTISRDNAKNTVYLQMNSLKPEDTAVYYCAASGVTYDYWGQGTQVTVSS | high polyreactivity |
| QVQLVESGGGLVQAGGSLRLSCAASGSTFVAYAMGWYRQAPGKERELVAAISSVGRTNYADSVKGRFTISRDNAKNTVYLQMNSLIPEDTAVYYCNVEPGGITRQEYDYWGQGTQVTVSS | high polyreactivity |
| QVQLVESGGGLVQAGGSLRLSCAASGRIVFYAMGWYRQAPGKERELVAAITGSGGRTYYADSVKGRFTISRDNAKITVYLQMNSLKPEDTAVYYCAARKWRHGYQGDYWGQGTQVTVSS | high polyreactivity |
| QVQLVESGGGLVQAGGSLRLSCAASGRIFYSNAMGWYRQAPGKERELVAAITTSGASTYYADSVKGRFTISRDNAKNTVYLQMNSLKPEDTSVYYCATYAVVYPFAMDYWGQGTQVTVSS | low polyreactivity |
| QVQLVESGGGLVQAGGSLRLSCAASGLIFARYATGWYRQAPGKERELVAAITDTGDITYSADSVKGRFTISRDNAKNTVYLQMNSLKPEDTGVYYCNADGVESVGGVETLYWRGGYWGQGTQVTVSS | low polyreactivity |
| QVQLVESGGGLVQAGGSLRLSCAASGRTFSTYAMGWYRQAPGKERELVAAITTSGGNTYYADSVKGRFTISRDNAKNTVYLQMNSLKPEDTAVYYCNADYFPTYDYWGQGTQVTVSS | low polyreactivity |
| QVQLVESGGCLVQAGGSLRLSCAASGSIFGVNAMGGYRQPPGKDRELVASITGGDSTNYADSVKGRFTISRDNAKNTVYLQMNSLKPEDTAVYYCAKDHYYRYEEGDYWGLGTQVTVSS | low polyreactivity |
| QVQLVESGGGLVQAGVILRLSCAASGRIFIPYAMGWYIQAPGKERELVAAISYRGGSTYYADSVKGRFTISRDNAKNTVYLQMNSLKPEDTAVYYCANYDYWGQGTQVTVSS | high polyreactivity |
| QVQLVESGVGLVQAGGSLRLSCAASGNILGYNAIGWYRQAPGKETELVAAISWIGGSTYYADSVKGRFTISRDNAKNTVYLQMNSLKPEDTAVYYCAARYRTYFTYEYWGQGTQVTVSS | low polyreactivity |
| QVQHVESGGGLVQAGGSLRLSCAASGSIFPDNAMGWYRQAPGQERELVAAIDKGTGSTNYADSVTGRFTLSRDNAKNNVYFQMNSLKPEDTAVYYCAKGWLTPRGGAWYDDYWGQGTHVTVSS | low polyreactivity |
| QVQLVESGGGLVQAGGSLRLSCAAAGSTFHANAMGWYRPAPGKERELVAAISRSGGSTNYADSVKGRFTISRDIAKNTVYLQMNSLKPEDTAVYYCAVDYRYYQVYYWGQGTQVTVSS | high polyreactivity |
| QVQLVESGGGLVQAGGSLRLSCAASGIIFANYAMGWYRQAPGKERELVAAITSSGSTYYADSVKGRFTISRDNAKNTVYLQMNSLKPEDTAVYYCAARRRGRFYYWGQGTQVTVSS | high polyreactivity |
| QVQLVESGGGLVQAGGSLRLSCAASGRIFSAYAMGWYRQAPGKEREFVAAISSRGGSTNYADSVKGRFTISRDNANNTVYLHMNSLKPEDTAVYYCNARYVQWYWIGKVIHIDNDYWGQGTQVNVSS | low polyreactivity |
| QVQLVESGGGLVQAGGSLRLSCAASGRIFGWYDMGWYRQAPGKERELVAAISYNGARTYYADSVKGRFTISRDNAKNTVYLQMNSLKPEDTAVYYCARRYYSQYDYWGQGTQVTVSS | high polyreactivity |

| Sequence | polyreactivity (PSR sort gate) |
| --- | --- |
| QVQLVESGGGLVQAGGSLRLSCAASGRIFGYYGMGWYRQAPGKERELVAAITDDGDSTYYADSVKGRFTISRDNAKNTVYLQMNSLKPEDTAVYYCNALGYYVNKMDYWGQGTQVTVSS | low polyreactivity |
| QVQLVESGGGLVQAGGSLRLSCAASGRIFGGYAMGWYRQAPGKERELVAAISNGGRTNYADSVKGRFTISRDNAKNTVYLQMISLKPEDTAVYYCAARNYKPYGYYRIYDSWGQGTQVTVSS | high polyreactivity |
| QVQLVESGGGLVQAGGSLRLSCAASGSIFVSNAMGWSRPAPGKDRELVAGINYSGGSTYYADSVKGRFTISRDNAKNTVYLQLTSLKPEDTAVYYCARRRPYQWPYNYWGQGTQVTVSS | high polyreactivity |
| QVQLVESGGGLVQAGGSLRLSCAASGLTFNWYAMGWYRQAPGKERELVAAINRRGVITYYADSVKGRFTISRDNAKNTVYLQMNSLKPEDTAVYYCNAAYGYVSRVYYLIEHDYWGQGTHVTVSS | high polyreactivity |
| QVQLVDSGGGLVQAGGILRLSCPASGLIIRKNAMGWYRQAPGKERELVAAISYNGASTYYADSVKGRFTISRDNAKNTVYLQMNSLKPEDTAVYYCAAYAGYSDQARYYYWGQGTQVTVSS | high polyreactivity |
| QVQLVESGGGLVQAGGSLRLSCAASGSISGYYTMGWYRQAPGKERELVAAISRSGVRTYYADSVKGRFTISRDNAMNTVYLQMNSLKPEDTAVYYCARKDSSLGDYWGQGTQVTVSS | high polyreactivity |
| QVQLVESGGGLVQAGGSLRLSCAASGSTFFRYAMGWYRQAPGKERELVAAISKSGASTYYADSVKGRFTISRDNAKNTVYLQMNSLNPEDTAVYYCNADVKKSSAREWQYGYDYWGQGTQVTVSS | low polyreactivity |
| QVQLVESGGGLVQAGGSLRLSCAASGFTFYRYAMGWYRQAPGKERELVAAITQSGGSTYYADSVKGRFTISRDNAKNTVYLQMNSLKPEDTAVYYCAARYRYDYGYGLGYSWGQGTQVTVSS | high polyreactivity |
| QVQLVDSGGGLVQAGGSLRLSCAASGSIFSVYAMGWYRQAPGKERELVAAISSRGGSTYYADSVKGRFTISRDNAKNTVYLQMNSLKPEDTAVYYCAASRQSQRGYWGQGTQVTVSS | high polyreactivity |
| QVQLVESGGGLVQAGGSLRLSCAASGPTFHGYDMGWNRQAPGKERELVARINWSDGRTYYADSVKGRFTISRDNAKNTVYLQMISLKPEDTAVYYCAADKTGSYAPAWYYYWGQGTQVTVSS | low polyreactivity |
| QLQLVQSGGGLVQAGGILRLSCAPSGSIFTPNTMGWYSQAPGKERELVAAITIRGGSTYYADSVKGSFTISRDNANITVYLQMNSLKPEDTAVYYCATEYGLRYYLVDYWGQGTQVTVSS | low polyreactivity |
| QVHLVESGGGLVQAGGSLRLSCAASGYIFKVNAMGWYRQATRKERELVAAISSDGGSTYADSVKGRFTISRDNAKNTVYLEFYSLKTEDTAVYYCNVDLESERDPPKYVYWGQGTQVTVSS | low polyreactivity |
| QVQLVESGGGLVQAGGSLRLSCAASGRIFRYYTMGWYTPAPGNERELVAAISSSGGRTYYADSVKGRFTISRDNAKNTVYLQMNSLKPEDTAVYYCNAYRRFSAFDYWGQGTQVTVTS | high polyreactivity |
| QVQHVKSGGGLVQAGGSLRLSCAASGSIFGYNTMGWYRQAPGKERELVATITYRGGSTYYADSVKGRFTISRDNAKNTVYLQMNSLKPEDTAVYYCARRVTRYPYTTWDSAGDYWGQGTQVTVSS | high polyreactivity |
| QVQLVESGVGLVQAGGSLRLSCAASGRIFIKYAMGWYRQAPGKEREFVAAISGRGGSTYYADSVKGRFTISRDNAKNTVYLQMNSLKPEDTAVYYCAKRFFSSGTAAGMYYWGQGTQVTVSS | high polyreactivity |
| QVQLVESGGGLVQAGGSLRLSCAASGRTFTIYAMGWYRQAPGKERELVAAISWSDGSTYYADSVKGRFTISRDNAKNTVYLQMNSLKPEDTAVYSCAREVYGDASAPDMDYWGQGTQVTVSS | low polyreactivity |
| QVQLVESGGGLVQAGGSLRLSCAASGIIFYKNVMGWYRQAPGKERELVAAINRSGGRTYYADSVKGRFTISRDNAKNTVYLQMNSLKPEDTAVYYCARSGTVFGRTYDYWGQGTQVTVSS | high polyreactivity |
| QVQLVESGGGLVQAGGSLRLSCAASGRILYRYAMGWYRQAPGKERELVAAISRSGGDTYYADSVKGRFTISRDNAKNTVYLQMNSLKPEDTAVYYCAASFEGSGYRYDYWGQGTQVTVSS | low polyreactivity |
| QVQLVESGGGLVQAGGSLRLSYAASGFTFTGYALGWYRQAPGKARELVAAISQSGGSTYADSVKGRFTISRDNAKNTVYLQMNSLKPEDTAVYYCAAVWFLLTEYDYWGQGTQVTVSS | low polyreactivity |
| QGQHVDSGGVLVQAGGSLRLSCAASGITVYLYAMGWYRPAPGKEREMVATISRSGGSTYADSVKGRFTISRDNAKNTVYLQMYSLKPEDSAVYYCNADVLSTGYIAYDYWGQGTQVTVSS | low polyreactivity |
| QVQLVETGGGLVQAGGSLRLSCAASGSIFRDNAMGWYRQAPGKESELVAAINVRDGDTFYADSVKGRFTISRDNAKNTVYLQMNSLKPEDTAVYYCAVAGATSYFAYDSWGQGTQVTVSS | low polyreactivity |
